Reference: patent US20240092942A1 (LEADARTIS S L, published 2024)

B1: 4-1BB IgG (SAP3.28 IgG), anti-hu4-1BB chimeric antibody (antibody, V domains shown)
VH: QVQLQESGPGLVRPSQTLSLTCTVSGFSLTSYGVHWVRQPPGRGLEWIGVIWRGGSTDYNAAFMSRLSITKDNSKSQVFFEMNSLQADDTAIYYCASPLGTSWDAMDYWGQGSLVTVSS
VL: DIQMTQSPSSLSASVGDRVTITCRASQDISNYLNWYQQKPGKAPKLLIYYKSRLHSGVPSRFSGSGSGTDYTLTISSLQPEDFATYYCQQGNTLPYTFGQGTKVEIK
notes: Bivalent IgG with the Fc region of murine IgG1, supplied by Prof; M. Glennie; also called SAP3.28 mAb; 4-1EE IgG
B2: urelumab (anti-hu4-1BB, BMS-663513) (antibody, V domains shown)
VH: QVQLQQWGAGLLKPSETLSLTCAVYGGSFSGYYWSWIRQSPEKGLEWIGEINHGGYVTYNPSLESRVTISVDTSKNQFSLKLSSVTAADTAVYYCARDYGPGNYDWYFDLWGRGTLVTVSS
VL: EIVLTQSPATLSLSPGERATLSCRASQSVSSYLAWYQQKPGQAPRLLIYDASNRATGIPARFSGSGSGTDFTLTISSLEPEDFAVYYCQQRSNWPPALTFGGGTKVEIK

Legend:
[1] = target: T1, recombinant His-tagged hu4-1BB (Sino Biological, #10014-H08H) (human, UniProt Q07011 24-186); assay: titration ELISA on plastic immobilized His-tagged hu4-1BB, GAM-HRP
T1 construct: Bought; also called soluble hu4-1BB; not shown: His tag

[2] = target: hu4-1BB constitutively expressed on NF-kB-luc2/4-1BB Jurkat reporter cells (Promega, #JA2351) (human, UniProt Q07011 24-255); assay: cell-based or functional assay
Chain of hu4-1BB constitutively expressed on NF-kB-luc2/4-1BB Jurkat reporter cells (Promega, #JA2351) (Q07011 24-255): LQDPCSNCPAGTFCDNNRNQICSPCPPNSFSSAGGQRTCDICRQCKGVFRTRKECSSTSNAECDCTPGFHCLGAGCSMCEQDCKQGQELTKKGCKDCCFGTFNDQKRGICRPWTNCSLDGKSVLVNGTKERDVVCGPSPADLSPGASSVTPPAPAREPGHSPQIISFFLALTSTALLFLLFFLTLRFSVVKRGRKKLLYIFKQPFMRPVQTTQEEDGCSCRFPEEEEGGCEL

T1 sequence (Q07011 24-186 limits assumed): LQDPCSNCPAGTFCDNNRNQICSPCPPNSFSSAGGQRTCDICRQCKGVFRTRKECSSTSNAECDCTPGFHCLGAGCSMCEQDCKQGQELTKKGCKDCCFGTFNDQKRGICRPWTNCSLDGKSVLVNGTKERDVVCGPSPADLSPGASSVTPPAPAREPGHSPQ

Binder | EC50 (read off the curve) [1] | EC50 (read off the curve); NF-kB reporter, co-culture with CHO^huFcγRIIb [Cont.) c] [2] | EC50 (read off the curve); NF-kB reporter, co-culture with CHO [Cont.) c] [2]
B1 | ~0.2 µg/mL | ~1 nM | –
B2 | – | ~0.06 nM | ~0.1 nM
